Reference: FireProtDB (doi:10.1007/s00775-020-01777-0)

B1: Cytochrome c-553, B8C6L5 (parent)
chain: MKLTIVAALIASASAWTTPKSFESVKAAVAGAAVTAGVAVSPAFAGDVGAGEQIFNANCAACHAGGQNVIMPDKTLEKEALEQYLAGGRNEKAVMTQVTNGKNAMPAFGGRLSDEDIANVASYVIATSEAGWD

Variants of: B1
Details: Thalassiosira pseudonana; pH 7.4; Thermal; UV/Vis spectroscopy; HEPES; transition: 2; reversible: > 90% (Yes); whole UniProt chain shown

A86S
Tm: 38.9 °C | unfolding enthalpy (van 't Hoff): 43.7 kcal/mol

A93S
Tm: 35.4 °C | unfolding enthalpy (van 't Hoff): 45.9 kcal/mol

A93S A126S
Tm: 32.2 °C | unfolding enthalpy (van 't Hoff): 38.2 kcal/mol

A126S
Tm: 35.1 °C | unfolding enthalpy (van 't Hoff): 40.8 kcal/mol
